In the DeepSol protein solubility set:

test: soluble on expression in E. coli; label from the status in PepcDB or PDB records

Sequence | soluble on expression in E. coli
MKVIAVNGGPRKQWNTATLLHKALEGAQSAGAETDLFHLYDLNYKGCISCFGCKRKNSSRIGHCVLKDELTPLLEEVLKCDALLLGSPIYFGNVTGAMRSFLERLFFSLLSYNEGQRTVFPRKVASGFIYTMNVPEDFLPQLEHHHHHH | soluble
MSLGNVGHLITPAIPLDYGELLAAPVTSSESMAQLRGRWIVLSVADGPCAEVCRQNLYKTRQMRLMLNKEIPRVRRLLLLTDPGAADALADWLRQDEFLAVAGLAPTLREKLEKAVGGPLQPGQILLLDPLGNLMMYYDADFDPYGVLKDLKHLLRASQIGEGHHHHHH | soluble
MGHHHHHHSHMSLKGKRIGFGFTGSHCTYEEVMPHLEKLIAEGAEVRPVVSYTVQSTNTRFGEGAEWIKKIEEITGFKAINSIVGAEPLGPKIPLDCMVIAPLTGNSMSKFANAMTDSPVLMAAKATLRNGKPVVLAVSTNDALGLNGVNLMRLMATKNIYFVPFGQDAPEKKPNSMVARMELLEDTVLEALQGKQLQPVVVEKFRYMN | soluble
MGSDKIHHHHHHMMGYNLTTPFLIYQWNFPMFPWDQIDTVLLDMDGTLLDLHFDNHFWLSLVPGTLSRMHGISAEAATSHVRAAYDKVAGTLEWYCLDYWERELGLDIMALHRTLVDRIQLRQDSMPFLTALADAGKRRILLTNAHPNSLALKLEHTELASGLDEMLSSHQTGHPKESPLFWQAVFARFELNPRRCLFIDDSEAILLAAKHAGVGFQLGISNPDSQQPNKVFHDFPAIHDYRLLLNE | not soluble
MGSDKIHHHHHHMIHEQDVQKLLNYITSHFGVDPERWFHPEGYQSIALAILDSIYSTGNRYTGVLNLVNRYCGLRANEGSHPEADTATDLIETFYRWGGVDEFVLKTNNRWRTSSKIHAPYKAYAALEAAKVLAGHSIESISDVVGRFDSRESREHSDIAREWLMITGQSSALTWSYFLMLVGVPGVKADRMIVRFVTHVLERPKEISRHEASRLIEEVADIMCVNYIYLDHTIWRFQSGRPYLQEDSSPFE | not soluble
MAHHHHHHMVLLWVDAEQYGVASSLGLSDDAKYPAFVIARGEDHFVHPSTEPVTAESIEKFIIEYSEKKLSPEIKSQPVPEIETVEGLTTVVGKTLDKYLSSGKDMLIEFFAPWCGHCKNLAPIYAKVAKEFESSDVIIAAMDATANQVDNSLFDVSGFPTIYFVPHGGKPIVYDGGRTFYEIYKFVHEHSSTLKDVPIPEEVKREEEKNGDYDDL | soluble
MIKTAQSVGELTRAIKNELESLFPFVRVKGELSNVKQHSSGHVYLTLKDSEAQIPAVIWKSVRARSPLELRDGLEVIAEGRLEVWPPAGRYQLICTALFETGEGEQRLALERLIAKLAKAGWFDAERKKPIPRIPRRIGMITSPTGAVIRDMSDVFARRFPAAELLLYPVQVQGERAVESIVRALRYFNDPPKPEHKPDVLIVARGGGSSEDLQAFNDEAVAEAIYRSAIPVISAVGHETDLSVADMVADLRAGTPSIAAERAVPDREELLRLIDNLVNRQSILMEGLISGAQLQVDSITSSYAFNRPVQMLGQFEERLALMEKEMKRAIAEKVRDREQQLTAAADRLAMLDINRTLKRGFALVTQDDRYVTSAKSLEADAKIGLTFHDGQREARVTE | not soluble
MFAIISVTGADHTGIIAAVATKCADLGVNINNVSQTIMDGYFTMILHVSFDDSATDIATIQESMADVEKDQNLVIRIQSQAIFDAMNII | not soluble
MGSDKIHHHHHHMKPIDQITSWMQEALRPYFGLEPLSAEWDILTVRDGYFICFDGDTIRKRITATELNYQEEDVIIQTSEREVVLPRTARGKEKKLTYTSVSSVMADGIVFSAGIRTLNSGRYGYINVSNYRNSIRLPLPECRDLASKGEIVEWLQSYRERVPADYAHKLERLMHMKNRQHKTIPGDVFRVEIDLHTDGYVLVIGNLRQMQKDELFAEHSIWNDVMTMPLFVRPYLFRTTVRNPSLSEIVASPLSDKCWIVMDNAFLRGNYEYVGSKILAEEDILFPVGYGSSISAQKSDYRLSWGPNSISKASQDTGLKAGRSYMNNGAYSSVSADCFVDRGFPDWDKTLLNPEHLEAWEQVLAEFGFPPDTTYDAFAQRTDGMTRAAYLTYVAENKAYQRKGRAKKKGS | not soluble
MSEDHHDEEQFDSAESGAAATFPKQCSALRKNEHVMIRGRPCKIVEMSTSKTGKHGHAKVHMVAIDIFTTKKLEDICPSTHNMDVPVVKRREYILMSIEDGFCSLMDPESCELKDDLKMPEGDLGNTIREALEKDEGSVLVQVVAACGEEAILGYKISTKE | not soluble
MVDIEIWLRLMSISSLYGDDMVRIAHWLAKQSHIDAVVLQQTGLTLRQAQRFLSFPRKSIESSLCWLEQPNHHLIPADSEFYPPQLQATTDYPGALFVEGELHALHSFQLAVVGSRAHSWYGERWGRLFCETLATCGVTITSGLARGIDGVVHKAALQVNGVSIAVLGNGLNTIHPRRHARLAASLFEQGGALVSEFPLDVPPLAYNFPRRNRIISGLSKGVLVVEAALRSGSLVTARCALEQGREVFALPGPIGNPGSEGPHWLIKQGAILVTEPEEILENLQFGLHWLPDAPENSFYSPDQQDVALPFPELLANVGDEVTPVDVVAERAGQPVPEVVTQLLELELAGWIAAVPGGYVRLRRACHVRRTNVFV | not soluble
MGSDKIHHHHHHMRVIPPIKSIIYFEAAARLQSFKLAAMELNVTPGAISHQISTLEDFIGKKVFERGSRRVTLTYCGLRYYSRISIILQNMEEATVDLGIEGSKPKIKIAIPPSLLKNWLLPRLVDDKLKDLNRSVEFIDTLDYLEFSKCDLDLAIRYGYDSWDNLYSVFLFHEEMIPVCHPNYFISEFTDFTQEIIDNHTLIFTNNRLVQWDIVMQYFGLERKSTQSKLIFQNSIQAIEAAIQGAGIAYVNRILVSKELSNGRLIQPFDIYMPKHKSPAYHLVSTYEHMQDEATFKLYQTILEFAKSTPHQHIVNAQAKQNAWLEHAV | not soluble
MATRPKTIWESFLSPVVRFLMDEDKWRRYAQSIDWEKESDRFRRTDVIIPSYYTSQNFHGIEGGYLNSSAAVTYDPITEYVLPPNETLVRQALIDGVKVQPRRILDLGCGTGSTTLMLKQAFPQADVIGLDLSPYMLVRAEDKARTADLDISWRHGNAEKTSFPNASFDLVTTSLLFHETPVEVSQTILQECFRLLVAGGQVIILDGNQKSLRQLNWLNDIFEEPYIREYAADNLDARMGAAGFVGVQTEDLWLIHQVTSGIKPILATDTNQIKDRQYMPAIDNNNLEGLESPAFGIVALEHHHHHH | not soluble
MAHHHHHHMDHRRSGLVLSLRYRCDGPVGTVETRRLTHVGTRSRARSAELARVRRALLVLLLPQRMKGLGQRLGDIRPREREGPGCRAQPWRASVVPRPARASLPPPKASGCFYAVHHHDKSSRLSVTATTAHDSSMRAPPSSVLRWTFTCVSSPRSTTAAAQTYHRPLHHPSQGFTTPRGRGRSAIHTHTHTHTHTHTHTHTHTHTHTRLSFNVRGPCEEHPHAPAACCIPLFLCCDAPAVSAAAAMSLQVNLLNNTFANPFMNAAGVMCTTTEELVAMTESASGSLVSKSCTPALREGNPTPRYQALPLGSINSMGLPNNGFDFYLAYAAEQHDYGKKPLFLSMSGLSMRENVEMCKRLAAVATEKGVILELNLSCPNVPGKPQVAYDFDAMRQCLTAVSEVYPHSFGVKMPPYFDFAHFDAAAEILNEFPKVQFITCINSIGNGLVIDAETESVVIKPKQGFGGLGGRYVLPTALANINAFYRRCPGKLIFGCGGVYTGEDAFLHVLAGASMVQVGTALQEEGPSIFERLTSELLGVMAKKRYQTLDEFRGKVRTLDGTAESTR | not soluble
MGSDKIHHHHHHMKNNHTLIIGGGIVGATLALKLAQDNKPVTLIDARPKRSEADWQQVLGQRDARVYALSLASIHLLKEVGAWQKIAASERKADYSQMQVWQLNGMGELLFGDSGDSNSSTGNSNVANNNDNTEPKMLGSMVEPAVIEHALWQRLSAPDVSQYLTVIAGHKVVDMDWLGATQGYRVTLDNGDVIDARLLVGADGRGSFVRKQAGIELDVLDYNQTAICCAIQTEKPHLATARQAMLPTGTLALLPLADITDEDKANPQHWQSIVWTLPRNQALALVAEHPCYIADKLAAASHYELGAIHKIESIASFPLAAQQAKSYVADNLVLIGDAAHGVHPLAGQGLNLGMLDVRALSKQLAHDYNRSGGTLWGANQTLRSYERLRRPHNSLMMHSFSALNWLFAGSLAQIRPVQQLRNEGMYRVSKIKPLMRLFAKQASGV | not soluble
